Measured values published in US20080305504.

What was measured:
[1] = tested on: T1, fluorogenic composition Cy5-SEQ. ID. NO.: 1-Cy7Q
T1 sequence: KIIDEDLNSRALG

[2] = tested on: T2, hC3 peptide modified with Gly attached to a Cy5 dye at the N terminus
T2 sequence: KIIDEDLNSRALG

Substance: C3 convertase (in human plasma)
- fluorescence intensity (excitation 623 nm, emission 676 nm), latex-activated plasma against plasma alone after subtracting the PBS control [1]: the signal enhancement due to Latex activation of complement was >100%
- fluorescence intensity (excitation 623 nm, emission 676 nm), plasma incubated on latex coated polystyrene against plasma alone [1]: showed >50% enhancement in signal over the plasma alone sample
- cleavage of the Cy5-labelled peptide in human plasma in a Latex plate, by reverse phase HPLC at 670 nm [2]: A new peak was observed in addition to the original peak. The new peak represents the cleavage product.
